Test results: US20250034594A1, “RNA-GUIDED GENOME RECOMBINEERING AT KILOBASE SCALE” (THE BOARD OF TRUSTEES OF THE LELAND STANFORD JUNIOR …, priority 2021, published 2025)

B1: SSAP_163: SEQ ID NO: 332; Clostridium sp. Marseille-P3244 (protein, listed as Clostridium sp.)
chain: AARATNSVKEELAKKAETKAVGEKKLTRSMSIADLIKAMAPEIKKALPEVITPERFTRMALSALNTTPKLQECTQMSFLAALMNAAQLGLEPNTPLGQAYLIPFNNKGTMECQFQIGYKGLIDLGYRNPQMQIISAQAVYENDEFEYELGLNPKLEHRPALHDRGELRLFYGLFKLVNGGFGFEVMSKEAVDAYAKEYSKSFDSSFSPWKTNYEAMAKKTVIKQALKYAPIKADFRKALSTDETIKNEIAEDMSEIHGEDIFDAEYTEQTA
B2: SSAP_51: SEQ ID NO: 220 (protein)
chain: AENEKQALLQEENKSENVVSTVKRTALATNPFSDTDQFNNIFKMAQLISQSDMIPATYKGKPMNCVIALEQANRMGVSPLMVMQNLYVVKGVPSWSGQGCMMIIQGCGKFRDVDYVYSGEKGTDSRSCKVVATRISDGKRIEGTEITMQMVKSEGWISNTKWKNMPEQMLGYRAATFFARMYCPNELNGFATEGEAEDMNHKPQRIEAINVLGDTAHE
B3: SSAP_234: SEQ ID NO: 403; Cellulosilyticum lentocellum (protein, listed as Cellulosilyticum lentocellum)
chain: SDKKELVLKETHSRLNQLLATKMEAMPKDFNQTRFLQNCMTVLQDTKGIENCHPVSIARTLLKGAFLGLDFFQRECYAIPYGGELQFQTDYKGETKMAKKYSIRDIKDIYAKVVRKGDEFKEEIVAGQQVVDFKPLPFNDAEIIGAFAVVLYQDGGMEYETMSTKQIEGIRDNFSKMKNGLMWTKTPEEAYKKTVLRRLTKKIEKDFASIDQAKAYEESSDMQFKQDEQKQDAKDPFADAVDVEFTEETEGQVRLDGEADGAK
B4: SSAP_105: SEQ ID NO: 274; unclassified Lysinibacillus (protein, listed as Lysinibacillus sp.)
chain: ATTTDLKAQMQQAPATQQKPKTIDDYLKQMAPAMAQALPKHMDVDRLMRLAMTTIRTTPALKDADVSSLLGAVMQAAQLGLEPGLMGHCYLLPFKNNKKGITEVQFIIGYKGMIDLARRSGHIQSIYAHAVYQKDEFEYELGLDPKLKHKPCMDEDKGNFVGAYAVAHFKDGGYQFEFMSKAEIEKRKGRSKAANSTYSPWATDYEEMAKKTVVRHMWKYLPISVEMQQQVAYDEGTAPKREMKDITPETEFFVDAPEIEVEVVNE
B5: SSAP_315: SEQ ID NO: 484; Pseudoalteromonas spongiae (protein, listed as Pseudoalteromonas spongiae)
chain: NKFQHLQTELSSQLLSTKERFNELNNKNNLKVNFEEEYNFFYHLVTSSFYNINGIATCTFSSLKEAFLNIAKYGLSINPKLNLCYIRTEQSCAQANVNIAVYDFGYKGLLKLITRTGKVKIVTADVFYENDNFEFRGTREPVKHSTKTLSAAARGAMAGGYCSSELVAGGVVTTIMTPEELREIESICQSTGNEAWNSVFIDELRRKTLIKRHWKTLMQVIEEQNLSVPIEETYQCDFANGGY

Legend:
Format in all cases: cell-based
gene editing with Cas9 = experiment: Screen of 322 new SSAP proteins, gene editing activity with Cas9 (Table 5); design: Cas9 with SSAP activity: scale not given here
Description: (§1) 322 new SSAP proteins were identified from sequence data, synthesized, and screened for activity with Cas9 and dCas9. Gene editing activities are shown below in Table 5, followed by amino acid sequences of the proteins.

gene editing with dCas9 = experiment: Screen of 322 new SSAP proteins, gene editing activity with dCas9 (Table 5); design: dCas9 with SSAP activity: scale not given here
Description: as §1

[1] = test system: gene editing with Cas9 and dCas9; experiment: Screen of 322 new SSAP proteins, activity across all experiments (Cas9 and dCas9, Table 5); design: scale not given here
Description: as §1

Molecule | Cas9 with SSAP activity (gene editing with Cas9) | Cas9 with SSAP activity (normalized) (gene editing with Cas9) | dCas9 with SSAP activity (gene editing with dCas9) | dCas9 with SSAP activity (normalized) (gene editing with dCas9) | Activity across all experiments [1]
LambdaBet (MSTALATLAGKLAERVGMDSVDPQELITTLRQTAFKGDASDAQFIALLI) | −4.490 | −0.856 | −2.737 | −0.416 | −3.613
B1 | 1.362 | 1.914 | −2.847 | −0.374 | −0.742
B2 | −0.124 | −0.406 | −2.900 | −0.907 | −1.512
B3 | 0.596 | 1.140 | −2.950 | −0.446 | −1.177
B4 | −0.802 | −0.382 | −2.961 | −0.450 | −1.882
B5 | −1.578 | −0.629 | −3.063 | −2.608 | −2.321
